B1: CD10 (recombinant human neprilysin, R&D systems, Ref 1182-ZN) (protein)
chain: DDGICKSSDCIKSAARLIQNMDATTEPCTDFFKYACGGWLKRNVIPETSSRYGNFDILRDELEVVLKDVLQEPKTEDIVAVQKAKALYRSCINESAIDSRGGEPLLKLLPDIYGWPVATENWEQKYGASWTAEKAIAQLNSKYGKKVLINLFVGTDDKNSVNHVIHIDQPRLGLPSRDYYECTGIYKEACTAYVDFMISVARLIRQEERLPIDENQLALEMNKVMELEKEIANATAKPEDRNDPMLLYNKMTLAQIQNNFSLEINGKPFSWLNFTNEIMSTVNISITNEEDVVVYAPEYLTKLKPILTKYSARDLQNLMSWRFIMDLVSSLSRTYKESRNAFRKALYGTTSETATWRRCANYVNGNMENAVGRLYVEAAFAGESKHVVEDLIAQIREVFIQTLDDLTWMDAETKKRAEEKALAIKERIGYPDDIVSNDNKLNNEYLELNYKEDEYFENIIQNLKFSQSKQLKKLREKVDKDEWISGAAVVNAFYSSGRNQIVFPAGILQPPFFSAQQSNSLNYGGIGMVIGHEITHGFDDNGRNFNKDGDLVDWWTQQSASNFKEQSQCMVYQYGNFSWDLAGGQHLNGINTLGENIADNGGLGQAYRAYQNYIKKNGEEKLLPGLDLNHKQLFFLNFAQVWCGTYRPEYAVNSIKTDVHSPGNFRIIGTLQNSAEFSEAFHCRKNSYMNPEKKCRVW
B2: CD26 (protein)
chain: SRKTYTLTDYLKNTYRLKLYSLRWISDHEYLYKQENNILVFNAEYGNSSVFLENSTFDEFGHSINDYSISPDGQFILLEYNYVKQWRHSYTASYDIYDLNKRQLITEERIPNNTQWVTWSPVGHKLAYVWNNDIYVKIEPNLPSYRITWTGKEDIIYNGITDWVYEEEVFSAYSALWWSPNGTFLAYAQFNDTEVPLIEYSFYSDESLQYPKTVRVPYPKAGAVNPTVKFFVVNTDSLSSVTNATSIQITAPASMLIGDHYLCDVTWATQERISLQWLRRIQNYSVMDICDYDESSGRWNCLVARQHIEMSTTGWVGRFRPSEPHFTLDGNSFYKIISNEEGYRHICYFQIDKKDCTFITKGTWEVIGIEALTSDYLYYISNEYKGMPGGRNLYKIQLSDYTKVTCLSCELNPERCQYYSVSFSKEAKYYQLRCSGPGLPLYTLHSSVNDKGLRVLEDNSALDKMLQNVQMPSKKLDFIILNETKFWYQMILPPHFDKSKKYPLLLDVYAGPCSQKADTVFRLNWATYLASTENIIVASFDGRGSGYQGDKIMHAINRRLGTFEVEDQIEAARQFSKMGFVDNKRIAIWGWSYGGYVTSMVLGSGSGVFKCGIAVAPVSRWEYYDSVYTERYMGLPTPEDNLDHYRNSTVMSRAENFKQVEYLLIHGTADDNVHFQQSAQISKALVDVGVDFQAMWYTDEDHGIASSTAHQHIYTHMSHFIKQCFSLP

Legend:
LGP-Dox = target: T1, LGP-Dox
T1 chain: LGP

[1] = target: T2, N-succinyl-beta-alanyl-L-leucyl-L-alanyl-L-leucyl-doxorubicin
T2 chain: ALAL

PhAc-AIGP-doxorubicin = target: T3, PhAc-AIGP-doxorubicin
T3 chain: AIGP

PhAc-ALAF-doxorubicin = target: T4, PhAc-ALAF-doxorubicin
T4 chain: ALAF

PhAc-ALAL-doxorubicin = target: T5, PhAc-ALAL-doxorubicin
T5 chain: ALAL

PhAc-ALGP-doxorubicin = target: T6, PhAc-ALGP-doxorubicin
T6 chain: ALGP

PhAc-ALPF-doxorubicin = target: T7, PhAc-ALPF-doxorubicin
T7 chain: ALPF

PhAc-DLGP-doxorubicin = target: T8, PhAc-DLGP-doxorubicin
T8 chain: DLGP

PhAc-GPGP-doxorubicin = target: T9, PhAc-GPGP-doxorubicin
T9 chain: GPGP

PhAc-KLGP-doxorubicin = target: T10, PhAc-KLGP-doxorubicin
T10 chain: KLGP

PhAc-TSGP-doxorubicin = target: T11, PhAc-TSGP-doxorubicin
T11 chain: TSGP

[2] = target: T12, Succinyl-βALPF-doxorubicin
T12 chain: ALPF

NH2-Gly-Pro-Doxorubicin = target: T13, NH2-Gly-Pro-Doxorubicin
T13 chain: GP

Row | Protein | cleavage by purified CD10 10 nM (grade) (LGP-Dox) | cleavage by purified CD10 10 nM (grade) [1] | cleavage by purified CD10 10 nM (grade) (PhAc-AIGP-doxorubicin) | cleavage by purified CD10 10 nM (grade) (PhAc-ALAF-doxorubicin) | cleavage by purified CD10 10 nM (grade; * = less than 5% of metabolites detected) (PhAc-ALAL-doxorubicin) | cleavage by purified CD10 10 nM (grade) (PhAc-ALGP-doxorubicin) | cleavage by purified CD10 10 nM (grade) (PhAc-ALPF-doxorubicin) | cleavage by purified CD10 10 nM (grade) (PhAc-DLGP-doxorubicin) | cleavage by purified CD10 10 nM (grade) (PhAc-GPGP-doxorubicin) | cleavage by purified CD10 10 nM (grade; * = less than 5% of metabolites detected) (PhAc-KLGP-doxorubicin) | cleavage by purified CD10 10 nM (grade) (PhAc-TSGP-doxorubicin) | cleavage by purified CD10 10 nM (grade; * = less than 5% of metabolites detected) [2] | hydrolysis by purified CD26 (LGP-Dox) | hydrolysis by purified CD26 [1] | conversion to Dox after 3 h incubation at 37° C. with purified CD26 (NH2-Gly-Pro-Doxorubicin) | hydrolysis by purified CD26 (PhAc-ALGP-doxorubicin)
1 | B1 | - | + | + | + | -* | + | - | - | - | -* | - | -* |  |  |  | 
2 | B2 |  |  |  |  |  |  |  |  |  |  |  |  | Neither CD26 nor FAP hydrolized either PhAc-ALGP-Dox, Suc-βALAL-Dox or LGP-Dox | Neither CD26 nor FAP hydrolized either PhAc-ALGP-Dox, Suc-βALAL-Dox or LGP-Dox | 97% conversion to Dox after 3 h incubation at 37 °C | Neither CD26 nor FAP hydrolized either PhAc-ALGP-Dox, Suc-βALAL-Dox or LGP-Dox

— US20160058880
